What all share (experiment): cell-based or functional assay
The target in assay [1] is recombinant HCV NS3 protease type 1b (amino acid 1027 to 1206) (hepatitis C virus genotype 1b).
Assay [2] has as its target human leukocyte elastase (human) (UniProt P08246).
Assay [3] deals with porcine pancreatic elastase (porcine) (UniProt P00772).
Assay [4] addresses recombinant NS3 protease with the NS4A peptide cofactor … (molar ratio enzyme:cofactor 1:100) (hepatitis C virus genotype 1b).
Assay [5] concerns the target human liver cathepsin B (human) (UniProt P07858).
Assay [6] concerns the target bovine pancreatic α-chymotrypsin (bovine) (UniProt P00766).

Chain of human leukocyte elastase (human) (P08246 30-247 limits assumed): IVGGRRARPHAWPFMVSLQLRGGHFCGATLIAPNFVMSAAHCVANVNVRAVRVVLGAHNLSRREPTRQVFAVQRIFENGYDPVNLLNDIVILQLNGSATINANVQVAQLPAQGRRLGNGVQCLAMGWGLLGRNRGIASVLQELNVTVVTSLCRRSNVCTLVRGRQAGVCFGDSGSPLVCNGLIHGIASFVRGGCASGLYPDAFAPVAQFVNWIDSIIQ
Chain of porcine pancreatic elastase (porcine) (P00772 27-266): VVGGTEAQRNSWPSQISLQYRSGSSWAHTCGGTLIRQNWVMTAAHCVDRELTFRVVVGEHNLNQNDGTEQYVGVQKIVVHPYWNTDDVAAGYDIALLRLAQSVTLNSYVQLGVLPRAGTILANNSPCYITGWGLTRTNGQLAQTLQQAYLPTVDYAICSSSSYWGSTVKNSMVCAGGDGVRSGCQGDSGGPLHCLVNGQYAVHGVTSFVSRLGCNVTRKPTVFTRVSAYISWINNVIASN

On to “Compound 110 (Table 1): Ac-Asp-Asp-Chg-Val-Pro-Cys (peptide)”, for which the concentration for half-maximal inhibition (IC50) (as a rule, the point on the concentration scale where inhibition reaches its midpoint) in assay [1] was 24 µM.

With “Compound 114 (Table 1): Ac-Asp-Asp-Ile-Chg-Pro-Cys (peptide)”, in assay [1], the IC50 was determined as 50 µM.

In the case of “Compound 115 (Table 1): Ac-Asp-Asp-Ile-Val-Abu-Cys (peptide)”, the IC50 in assay [1] was 58 µM.

For the substance “Compound 123 (Table 1): Ac-Asp-Asp-Ile-Val-Pro-Nva (peptide)”, in assay [2], the HLE is > 300 µM. Also, the PPE in assay [3] is > 300 µM. For the same substance, in assay [4], the 50% inhibitory concentration (IC50) was found to be 220 µM.

Turning to “Compound 127 (Table 1): Ac-Asp-Asp-Ile-Val-Pip-Nva (peptide)”, the IC50 in assay [1] came out at 605 µM.

For the substance “Compound 129 (Table 1): Ac-Asp-Tbg-Ile-Val-Pro-Nva (peptide)”, the IC50 in assay [1] was determined as 270 µM.

Take “Compound 203 (Table 2): Ac-Asp-D-Glu-Ile-Val-Pro(O-Bn)-Nva (peptide)”: the HLE in assay [2] is > 300 µM. The PPE in assay [3] was > 300 µM. Also, the Other in assay [5] was > 300 µM. In assay [4], the concentration for half-maximal inhibition (IC50) amounted to 0.6 µM.

For the substance “Compound 204 (Table 2): Ac-Asp-Asp-Ile-Val-Pro(o-tolyl-methoxy)-Nva (peptide)”, the IC50 in assay [1] came to 9.4 µM.

Turning to “Compound 205 (Table 2): Ac-Asp-Asp-Ile-Val-Pro(m-tolyl-methoxy)-Nva (peptide)”, the half-inhibitory concentration (IC50) in assay [1] came to 6.7 µM.

Consider “Compound 206 (Table 2): Ac-Asp-Asp-Ile-Val-Pro(p-tolyl-methoxy)-Nva (peptide)”, for which, in assay [1], the IC50 stood at 6.4 µM.

Consider “Compound 210 (Table 2): Ac-Asp-D-Glu-Chg-Val-Pro(O-Bn)-Cys (peptide)”, for which the HLE in assay [2] is > 300 µM. Further, the PPE in assay [3] was > 300 µM. In assay [6], the Other is > 300 µM. Further, the IC50 in assay [4] came out at 0.033 µM.

Take “Compound 212 (Table 2): Ac-Asp-D-Glu-Ile-Val-Pro(O-Bn)-Acca (peptide)”: the HLE in assay [2] was > 300 µM. For the same substance, the PPE in assay [3] was > 300 µM. Further, the IC50 in assay [4] turned out to be 0.21 µM.

“Compound 214 (Table 2): Ac-Asp-D-Glu-Chg-Val-Pro(2-NpCH2O)-Nva (peptide)”: the HLE in assay [2] was > 300 µM. Besides, the PPE in assay [3] is > 300 µM. Besides, the Other in assay [5] and in assay [6] was > 300 µM each time. The IC50 in assay [4] turned out to be 0.028 µM.

Regarding “Compound 227 (Table 2): Ac-Chg-Val-Pro(1-NpCH2O)-Acca (peptide)”, the HLE in assay [2] was > 600 µM.

For “Compound 231 (Table 2): Ac-Chg-Chg-Pro(1-NpCH2O)-Acca (peptide)”, in assay [4], the IC50 was determined as 2.6 µM.

On to “Compound 232 (Table 2): AcOCH2-C(O)-Chg-Chg-Pro(1-NpCH2O)-Acca (peptide)”, for which, in assay [4], the concentration for half-maximal inhibition (IC50) was determined as 1.4 µM.

“Compound 234 (Table 2): Ac-Chg-Chg-Pro(O-Bn)-Acca (peptide)”: the IC50 in assay [4] came to 41 µM.

With “Compound 235 (Table 2): Boc-Chg-Chg-Pro(1-NpCH2O)-Acca (peptide)”, the half-maximal inhibitory concentration (IC50) in assay [4] was found to be 12 µM.

In assay [2], “Compound 238 (Table 2): Ac-Chg-Val-Pro((4Br-Ph)O)-Acca (peptide)” yielded an HLE of 195 µM. Also, the IC50 in assay [4] was determined as 27 µM.

“Compound 239 (Table 2): Ac-Chg-Val-Pro((2Br-Ph)O)-Acca (peptide)”: the half-inhibitory concentration (IC50) in assay [4] worked out at 27 µM.

For the substance “Compound 240 (Table 2): Ac-Chg-Val-Pro((3Br-Ph)O)-Acca (peptide)”, the IC50 in assay [4] was 42 µM.

As for “Compound 242 (Table 2): Ac-Chg-Val-Pro((4Br-Ph)S)-Acca (peptide)”, the half-maximal inhibitory concentration (IC50) in assay [4] came to 36 µM.

Regarding “Compound 249 (Table 2): Ac-Chg-Val-Pro((4I-Ph)O)-Acca (peptide)”, the IC50 in assay [4] is 9.7 µM.

“Compound 252 (Table 2): Ac-Chg-Val-Pro(1-NpCH2O)-Nva (peptide)”: the IC50 in assay [4] stood at 20 µM.

Turning to “Compound 268 (Table 2): Ac-Chg-Val-Pro((3Br-Ph)CH2O)-Acca (peptide)”, the IC50 in assay [4] turned out to be 24 µM.

For “Compound 272 (Table 2): Ac-Chg-Val-Pro((3,5-Br2-Ph)CH2O)-Acca (peptide)”, the half-maximal inhibitory concentration (IC50) in assay [4] came to 27 µM.

As for “Compound 501 (Table 5): Ac-Chg-Val-Pro(OBn)-P1(R14 Et; 1R, 2R) (peptide)”, the concentration for half-maximal inhibition (IC50) in assay [4] came out at 17.1 µM.

In the case of “Compound 502 (Table 5): Ac-Chg-Val-Pro(OBn)-P1(R14 Et; 1R, 2?) (peptide)”, the 50% inhibitory concentration (IC50) in assay [4] amounted to 12.6 µM.

As to “Compound 503 (Table 5): Ac-Chg-Chg-Pro(1-NpCH2O)-P1(R14 Et; 1R, 2?) (peptide)”, the HLE in assay [2] came to 250 µM. Moreover, the IC50 in assay [4] stood at 1.35 µM.

For the substance “Compound 504 (Table 5): Ac-Chg-Chg-Pro(1-NpCH2O)-P1(R14 Et; 1R, 2?) (peptide)”, the IC50 in assay [4] came out at 9.53 µM.

On to “Compound 505 (Table 5): Ac-Chg-Chg-Pro(1-NpCH2O)-P1(R14 Et; 1R, 2R) (peptide)”, for which the IC50 in assay [4] was 0.55 µM.

Regarding “Compound 506 (Table 5): Ac-Chg-Chg-Pro(1-NpCH2O)-P1(R14 Et; 1S, 2S) (peptide)”, the HLE in assay [2] was > 400 µM.

Regarding “Compound 507 (Table 5): Ac-Chg-Val-Pro(1-NpCH2O)-P1(R14 Me; 1R, 2?) (peptide)”, in assay [4], the IC50 was 5.1 µM.

For “Compound 508 (Table 5): Ac-Chg-Val-Pro(1-NpCH2O)-P1(R14 CHMe2; 1R, 2?) (peptide)”, in assay [4], the half-inhibitory concentration (IC50) is 4.15 µM.

Consider “Compound 509 (Table 5): Ac-Asp-D-Glu-Chg-Chg-Pro(1-NpCH2O)-P1(R14 Et; 1R, 2R) (peptide)”, for which the HLE in assay [2] is > 300 µM. In addition, the 50% inhibitory concentration (IC50) in assay [4] came out at 0.015 µM.

For the substance “Compound 510 (Table 5): Ac-Chg-Val-Pro(1-NpCH2O)-P1(R14 CH2OCH2Ph; 1R, 2?) (peptide)”, the IC50 in assay [4] turned out to be 15.5 µM.

With “Compound 511 (Table 5): Ac-Chg-Val-Pro(1-NpCH2O)-P1(R14 CH2OCH2Ph; 1R, 2?) (peptide)”, the half-maximal inhibitory concentration (IC50) in assay [4] was found to be 32.5 µM.

For “Compound 512 (Table 5): Ac-Chg-Val-Pro(1-NpCH2O)-P1(R14 (CH2)2Ph; 1R, 2?) (peptide)”, the IC50 in assay [4] was determined as 19.5 µM.

For the substance “Compound 513 (Table 5): Ac-Chg-Val-Pro(1-NpCH2O)-P1(R14 Et; 1R, 2R) (peptide)”, in assay [2], the HLE was > 300 µM.

In the case of “Compound 514 (Table 5): Ac-Chg-Val-Pro(1-NpCH2O)-P1(R14 Et; 1S, 2S) (peptide)”, the concentration for half-maximal inhibition (IC50) in assay [4] is 27.5 µM.

On to “Compound 515 (Table 5): Ac-Chg-Val-Pro(1-NpCH2O)-P1(R14 Bz; 1R, 2?) (peptide)”, for which the IC50 in assay [4] turned out to be 9.2 µM.

For the substance “Compound 516 (Table 5): Ac-Chg-Val-Pro(1-NpCH2O)-P1(R14 Bz; 1R, 2?) (peptide)”, the concentration for half-maximal inhibition (IC50) in assay [4] turned out to be 46.5 µM.

On to “Compound 518 (Table 5): Ac-Asp-D-Glu-Chg-Val-Pro(1-NpCH2O)-P1(R14 Et; 1R, 2R) (peptide)”, for which the HLE in assay [2] is > 300 µM. Besides, the IC50 in assay [4] was found to be 0.011 µM.

Turning to “Compound 519 (Table 5): Ac-Chg-Val-Pro(1-NpCH2O)-P1(R14 Pr; 1R, 2?) (peptide)”, the IC50 in assay [4] was determined as 3.45 µM.

For “Compound 520 (Table 5): Ac-Chg-Val-Pro(1-NpCH2O)-P1(R14 Pr; 1R, 2?) (peptide)”, in assay [4], the concentration for half-maximal inhibition (IC50) amounted to 22.5 µM.

Take “Compound 521 (Table 5): Ac-Asp-D-Val-Chg-Val-Pro(1-NpCH2O)-P1(R14 Et; 1R, 2R) (peptide)”: the HLE in assay [2] is > 300 µM. In addition, the IC50 in assay [4] worked out at 0.024 µM.

As for “Compound 601 (Table 6): P4 Chg, P3 Val, R13 OBn, R14 CH═CH2 (peptide)”, the IC50 in assay [4] was 3.61 µM.

“Compound 602 (Table 6): P4 Chg, P3 Chg, R13 1-NpCH2O, R14 CH═CH2 (peptide)”: the 50% inhibitory concentration (IC50) in assay [4] came out at 0.13 µM.

As for “Compound 603 (Table 6): P4 Chg, P3 Val, R13 1-NpCH2O, R14 CH═CH2 (peptide)”, in assay [4], the IC50 amounted to 0.36 µM.

Take “Compound 604 (Table 6): P4 Chg, P3 Val, R13 OBn, R14 CH═CHBr* (peptide)”: the concentration for half-maximal inhibition (IC50) in assay [4] is 2.55 µM.
